Target: HEY1 (UniProt Q9Y5J3)
Assay: co-IP of Flag-DPF3a and HA-HEY1
Conditions: reference: wild type; sites S348

UniProt Q9Y5J3, sequence (Q9Y5J3 whole entry, looked up): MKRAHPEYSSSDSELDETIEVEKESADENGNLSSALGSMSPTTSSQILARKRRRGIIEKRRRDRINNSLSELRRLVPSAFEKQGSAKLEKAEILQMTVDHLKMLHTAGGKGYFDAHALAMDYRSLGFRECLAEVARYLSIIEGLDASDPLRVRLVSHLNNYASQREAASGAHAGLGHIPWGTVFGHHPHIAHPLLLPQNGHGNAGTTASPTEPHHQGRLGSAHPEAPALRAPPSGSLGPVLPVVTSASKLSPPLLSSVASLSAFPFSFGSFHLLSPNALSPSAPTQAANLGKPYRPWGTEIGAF

## DPF3a (BAF45c1) (from UniProt Q92784-2) S348A
  binding against the reference: weaker

— PMC4824069
